From patent US20070072186A1, “Methods and agents for screening for compounds capable of modulating her2 expression” (priority 2003, published 2007)

Columns and labels:
48-kDa polypeptide = assay: UV-crosslinking of 32P-labeled RNA with SKBR3 cytoplasmic extracts; format: binding; conditions: for UV-crosslinking of the 48-kDa polypeptide to labeled RNA: SKBR3 cytoplasmic extracts, FIG. 10A; for competition for binding of the 48-kDa polypeptide to full-length, labeled Her2 3′ UTR: FIG. 10B
Method: Total protein from cancer cell lines is incubated with 10 fmoles of ^32P-UTP-labeled RNA for 1 hour at 37° C. in a final volume of 20 μl using Binding Buffer (20 mM Hepes-KOH, pH 7.5, 2.5 mM MgCl2, 100 mM KCl, 20% glycerol, 0.5 mM dithiothreitol, protease inhibitor tablets). Reaction mixtures are UV-irradiated at 254 nm for 10 minutes with a StrataLinker® 11800 (Stratagene; La Jolla, Calif.) in Costar® 96-Well Cell Culture Clusters (CORNING COSTAR Co., Cambridge, Mass.) on ice. The reaction mixtures are then treated with RNAse A (2 mg/ml) for 30 minutes at 37° C. The samples are analyzed by 12% or 10-14% Criterion™ gels (Bio-Rad Laboratories, Inc., Hercules, Calif.) by Sodium Dodecyl Sulfate-Polyacrylamide gel electrophoresis (SDS-PAGE) and are detected by autoradiography.
To study the role of trans-acting factors in modulating interactions between 5′ and 3′ UTRs, in vitro transcripts are synthesized, labeled, and incubated with cytoplasmic extracts from SKBR3 cells. After UV-crosslinking, unprotected areas of labeled RNA are digested with RNAse A, and the remaining labeled RNA molecules are resolved on SDS-PAGE.
Instead, a minimal binding region of […], corresponding to the nucleotide sequence from residue 490 to residue 510 of a 3′ Her2 UTR, is essential for the 48-kDa polypeptide to UV-crosslink to a Her2 3′ UTR. […] In comparison, competition with a 500-fold molar excess of nucleic acid molecules with sequences derived from the Her2 5′ UTR is ineffective in titrating out the 48-kDa polypepide.

[1] = test system: luciferase reporter gene linked to a 5′ her2 UTR; assay: luciferase reporter constructs with her2 UTRs transfected into a panel of cell lines; format: cell-based; conditions: luciferase activity 48 hours after transfection
Method: A luciferase reporter gene is linked to her2 UTRs to make various constructs (see FIG. 2). Each construct is transfected into a panel of cell-lines using Fugene® (Hoffmann-La Roche Inc., Nutley, N.J.), and the luciferase activity is measured 48 hours after transfection. The results are expressed as a fold-increase in luciferase activity over the repression caused by the 5′ her2 UTR linked to the luciferase reporter gene. A 5′ her2 UTR (SEQ ID NO: 6) represses translation of a luciferase reporter gene. […] The greatest modulation is observed in the mammalian cancer cell lines that over-express Her2 protein, SKBR-3 and BT-474, about 13-fold and about 10-fold, respectively, showing that the efficiency of translation of a luciferase reporter gene mRNA in Her2 positive cells is regulated by interactions of regions in the 5′ her2 UTR and the 3′ her2 UTR. Moreover, the effect is more pronounced in high Her2 expressing cells relative to low Her2 expressing cell lines, especially for breast cancer cells.

[2] = test system: capped-5′+3′ UTR-luciferase RNA; assay: in vitro rabbit reticulocyte translation of capped reporter RNA in the presence of competitor RNA; format: biochemical; conditions: for inhibition of translation of capped-5′+3′ UTR-luciferase RNA relative to absence of competitor RNA: 5-fold molar excess of competitor RNA, 60 minutes at 37° C., FIG. 1
Method: A 73-residue region from a 3′ her2 UTR (SEQ ID NO: 1) and an N-terminal 310-residue region from a 3′ her2 UTR (SEQ ID NO: 5) are cloned into a construct downstream of a T7-promoter. RNA encoded for by these regions is synthesized using a T7-in vitro transcription kit (Ambion, Inc.; Austin, Tex.).
To quantitate the maximum level of translation, a capped-5′+3′ UTR-luciferase RNA (0.057 pmoles) is translated in an in vitro rabbit reticulocyte translation system for 60 minutes at 37° C. Then, a capped-5′+3′ UTR-luciferase RNA is translated in the presence of between a 5- to 500-fold molar excess of RNA from either the 73-residue region from a 3′ her2 UTR (SEQ ID NO: 1) or the N-terminal 310-residue region from a 3′ her2 UTR (SEQ ID NO: 5) under the same conditions.
Capped, in vitro-transcribed Her2 5′ UTR-luciferase-Her2 3′ UTR (5H3H-Luc) and vector only-luciferase (Vector-Luc) are translated in the presence or absence of competitor RNA fragments derived from a Her-2 3′ UTR. Nucleic acid molecules derived from nucleotides 468-540 of a Her2 3′ UTR (468-540) and from residues 468-615 of a Her2 3′ UTR (468-615) each contain the 73-nucleotide sequence (SEQ ID NO:1) essential for suppression of 5′ Her2 UTR repression. […] The percentage of inhibition of expression is less in the presence of the 1-310 fragment with respect to the percentage of inhibition of expression in the presence of either of the nucleic acid molecules containing SEQ ID NO: 1, 468-615 and 468-540. The percentage of inhibition for the 1-310 fragment is dose-dependent, whereas even at only a 5-fold molar excess of competitor RNA conatining SEQ ID NO: 1, expression is only at 25% of the maximum level of translation.

[3] = test system: luciferase reporter gene linked to a 5′ her2 UTR; assay: luciferase constructs with 3′ her2 UTR variants transfected into SKBR3 cells; format: cell-based; conditions: 48 hours after transfection
Method: A luciferase reporter gene is linked to 3′ her2 UTR variants to make various constructs (see FIG. 6). Each construct is transfected into cell-lines, SKBR3 cells in particular, using Fugene® (Hoffmann-La Roche Inc., Nutley, N.J.), and the luciferase activity is measured 48 hours after transfection. The results are expressed as a fold-increase in luciferase activity over the repression caused by a 5′ her2 UTR (SEQ ID NO: 6) linked to the luciferase reporter gene (see FIG. 6). A 5′ her2 UTR represses translation of a reporter gene, such as luciferase.

Ship-2 uORF = assay: chimeric luciferase constructs with Ship-2 5′ UTR in SKBR3 cells; format: cell-based; conditions: in combination with a Ship-2 5′ UTR, FIG. 7
Description: Ship-2 mRNA contains a 33 nucleotide uORF (encoding 10 amino acids) that is located 14 nucleotides upstream of the main ORF. The uORF strongly represses translation of the main ORF.
The presence of TRE1 in the 3′ UTR, when in combination with a Ship-2 5′ UTR, increases expression of luciferase about 5-fold relative to luciferase being flanked by 3′ and 5′ Ship-2 UTRs. Luciferase expression increases when flanked by a 5′ Ship-2 UTR and a chimeric 3′ UTR, consisting of 328 residues of Ship-2 3′ UTR flanked by the 5′ and 3′ end seqeunces of the Her-23′ UTR, relative to luciferase being flanked by 3′ and 5′ Ship-2 UTRs. […] The presence of the 3′ Her2 UTR residues 1-110 (SEQ ID NO: 28) in the chimeric 3′ UTR results in a slight increase in luciferase expression relative to 3′ Ship-2 UTR. Suppression of translational repression occurs in cells with chimeric constructs expressing a Ship-2 3′ UTR containing only TRE1 (SEQ ID NO: 1) from a Her-23′ UTR.

B1: 3′ her2 UTR: naturally occurring Her2 3′ UTR, linked downstream of luciferase in reporter constructs (nucleic acid)
DNA: TGAACCAGAAGGCCAAGTCCGCAGAAGCCCTGATGTGTCCTCAGGGAGCAGGGAAGGCCTGACTTCTGCTGGCATCAAGAGGTGGGAGGGCCCTCCGACCACTTCCAGGGGAACCTGCCATGCCAGGAACCTGTCCTAAGGAACCTTCCTTCCTGCTTGAGTTCCCAGATGGCTGGAAGGGGTCCAGCCTCGTTGGAAGAGGAACAGCACTGGGGAGTCTTTGTGGATTCTGAGGCCCTGCCCAATGAGACTCTAGGGTCCAGTGGATGCCACAGCCCAGCTTGGCCCTTTCCTTCCAGATCCTGGGTACTGAAAGCCTTAGGGAAGCTGGCCTGAGAGGGGAAGCGGCCCTAAGGGAGTGTCTAAGAACAAAAGCGACCCATTCAGAGACTGTCCCTGAAACCTAGTACTGCCCCCCATGAGGAAGGAACAGCAATGGTGTCAGTATCCAGGCTTTGTACAGAGTGCTTTTCTGTTTAGTTTTTACTTTTTTTGTTTTGTTTTTTTAAAGACGAAATAAAGACCCAGGGGAGAATGGGTGTTGTATGGGGAGGCAAGTGTGGGGGGTCCTTCTCCACACCCACTTTGTCCATTTGCAAATATATTTTGGAAAAC
UV-crosslinking of the 48-kDa polypeptide to labeled RNA (48-kDa polypeptide): crosslinks
Fold-increase over 5′ UTR Average ([1]; 293T): 1.54 ± 1.0
Fold-increase over 5′ UTR Average ([1]; HeLa): 2.23 ± 0.5
Fold-increase over 5′ UTR Average ([1]; Hs578.1): 2 ± 0.5

B2: SEQ ID NO: 5: first 310 nucleotides of the Her2 3′ UTR, does not contain SEQ ID NO: 1; competitor RNA (nucleic acid)
DNA: TGAACCAGAAGGCCAAGTCCGCAGAAGCCCTGATGTGTCCTCAGGGAGCAGGGAAGGCCTGACTTCTGCTGGCATCAAGAGGTGGGAGGGCCCTCCGACCACTTCCAGGGGAACCTGCCATGCCAGGAACCTGTCCTAAGGAACCTTCCTTCCTGCTTGAGTTCCCAGATGGCTGGAAGGGGTCCAGCCTCGTTGGAAGAGGAACAGCACTGGGGAGTCTTTGTGGATTCTGAGGCCCTGCCCAATGAGACTCTAGGGTCCAGTGGATGCCACAGCCCAGCTTGGCCCTTTCCTTCCAGATCCTGGGTAC
inhibition of translation of capped-5′+3′ UTR-luciferase RNA relative to absence of competitor RNA [2]: not significantly inhibited
percentage of inhibition of expression, dependence on amount of competitor ([2]; competitor RNA, FIG. 9): dose-dependent

B3: Her2 5′ UTR: naturally occurring Her2 5′ UTR; RNA probe and competitor in UV-crosslinking (nucleic acid)
DNA: GGCTGCTTGAGGAAGTATAAGAATGAAGTTGTGAAGCTGAGATTCCCCTCCATTGGGACCGGAGAAACCAGGGGAGCCCCCCGGGCAGCCGCGCGCCCCTTCCCACGGGGCCCTTTACTGCGCCGCGCGCCCGGCCCCCACCCCTCGCAGCACCCCGCGCCCCGCGCCCTCCCAGCCGGGTCCAGCCGGAGCCATGGGGCCGGAGCCGCAGTGAGCACC
competition for binding of the 48-kDa polypeptide to full-length, labeled Her2 3′ UTR (48-kDa polypeptide; 500-fold molar excess of competitor): ineffective
UV-crosslinking of the 48-kDa polypeptide to labeled RNA (48-kDa polypeptide): does not crosslink

B4: SEQ ID NO: 29: Her2 3′ UTR variant with nucleotides 1-110 deleted at the 5′ end, in a luciferase construct (nucleic acid)
DNA: CCTGCCATGCCAGGAACCTGTCCTAAGGAACCTTCCTTCCTGCTTGAGTTCCCAGATGGCTGGAAGGGGTCCAGCCTCGTTGGAAGAGGAACAGCACTGGGGAGTCTTTGTGGATTCTGAGGCCCTGCCCAATGAGACTCTAGGGTCCAGTGGATGCCACAGCCCAGCTTGGCCCTTTCCTTCCAGATCCTGGGTACTGAAAGCCTTAGGGAAGCTGGCCTGAGAGGGGAAGCGGCCCTAAGGGAGTGTCTAAGAACAAAAGCGACCCATTCAGAGACTGTCCCTGAAACCTAGTACTGCCCCCCATGAGGAAGGAACAGCAATGGTGTCAGTATCCAGGCTTTGTACAGAGTGCTTTTCTGTTTAGTTTTTACTTTTTTTGTTTTGTTTTTTTAAAGACGAAATAAAGACCCAGGGGAGAATGGGTGTTGTATGGGGAGGCAAGTGTGGGGGGTCCTTCTCCACACCCACTTTGTCCATTTGCAAATATATTTTGGAAAAC
modifications: luciferase construct
notes: Her2 3′ UTR variant with nucleotides 1-110 deleted at the 5′ end, in a luciferase construct
fold-increase in luciferase expression over 5′ her2 UTR+Luc [3]: 1.7±0.9 fold

B5: SEQ ID NO: 1: 73-residue region (residues 468-540) from a 3′ her2 UTR, translational regulatory element TRE1; used as competitor RNA (nucleic acid)
DNA: CTTTTCTGTTTAGTTTTTACTTTTTTTGTTTTGTTTTTTTAAAGACGAAATAAAGACCCAGGGGAGAATGGGT
modifications: competitor RNA from UTR region, further chemistry not given here
inhibition of translation of capped-5′+3′ UTR-luciferase RNA relative to absence of competitor RNA [2]: about 75%
competition for binding of the 48-kDa polypeptide to full-length, labeled Her2 3′ UTR (48-kDa polypeptide; 50-fold molar excess of unlabeled competitor): prevents binding
UV-crosslinking of the 48-kDa polypeptide to labeled RNA (48-kDa polypeptide): crosslinks
increase of luciferase expression relative to luciferase flanked by 3′ and 5′ Ship-2 UTRs (Ship-2 uORF): about 5 fold
